The text below walks through data of article PMC10100024 (British Journal of Pharmacology, 2022).

Assay in all cases: FRET or BRET
(BRET reads energy transfer from a luciferase to a nearby fluorophore.)

Experiment [1] addresses T1, pplss-3HA-hCB1 receptor, wild type (human, UniProt P21554 1-472).
In experiment [2] the target is T2, pplss-3HA-hCB1 receptor S425A/S429A (D1) (human, UniProt P21554 1-472, S425A | S429A).
Experiment [3] concerns the target T3, pplss-3HA-hCB1 receptor S462A/T465A (D2) (human, UniProt P21554 1-472, S462A | T465A).
Experiment [4] deals with T4, pplss-3HA-hCB1 receptor S464A/T467A (D3) (human, UniProt P21554 1-472, S464A | T467A).
In experiment [5] the target is T5, pplss-3HA-hCB1 receptor T465A/S468A (D4) (human, UniProt P21554 1-472, T465A | S468A).
The target in experiment [6] is T6, pplss-3HA-hCB1 receptor S462A/S464A/T465A (T) (human, UniProt P21554 1-472, S462A | S464A | T465A).
For experiment [7], the target named is T1, pplss-3HA-hCB1 receptor, wild type. This is another data set of the same source.
Experiment [8] has as its target T2, pplss-3HA-hCB1 receptor S425A/S429A (D1). This is another data set of the same source.
Experiment [9] has as its target T3, pplss-3HA-hCB1 receptor S462A/T465A (D2). The source holds these as a separate data set.
Experiment [10] deals with T4, pplss-3HA-hCB1 receptor S464A/T467A (D3). This is another data set of the same source.
Experiment [11] has as its target T5, pplss-3HA-hCB1 receptor T465A/S468A (D4). The source holds these as a separate data set.
Experiment [12] concerns the target T6, pplss-3HA-hCB1 receptor …. The source holds these as a separate data set.

B1: Nluc-(human)-Arrestin-2-Sp1 (natural protein, UniProt P49407 1-418, looked up)
chain: MGDKGTRVFKKASPNGKLTVYLGKRDFVDHIDLVDPVDGVVLVDPEYLKERRVYVTLTCAFRYGREDLDVLGLTFRKDLFVANVQSFPPAPEDKKPLTRLQERLIKKLGEHAYPFTFEIPPNLPCSVTLQPGPEDTGKACGVDYEVKAFCAENLEEKIHKRNSVRLVIRKVQYAPERPGPQPTAETTRQFLMSDKPLHLEASLDKEIYYHGEPISVNVHVTNNTNKTVKKIKISVRQYADICLFNTAQYKCPVAMEEADDTVAPSSTFCKVYTLTPFLANNREKRGLALDGKLKHEDTNLASSTLLREGANREILGIIVSYKVKVKLVVSRGGLLGDLASSDVAVELPFTLMHPKPKEEPPHREVPENETPVDTNLIELDTNDDDIVFEDFARQRLKGMKDDKEEEEDGTGSPQLNNR
As to B1, the “Emax of net translocation (%WT)” value in experiment [1] came out at 100 %WT; in experiment [2] it was 72.3 %WT; in [3] it was 32.3 %WT; in experiment [4] it was 32.9 %WT; in [5], 61.6 %WT; in experiment [6], 25.6 %WT. For the same molecule, the “initial rate of translocation” value in experiment [7] was 0.000136 ΔBRET ratio per second; in experiment [8] it was 5.81e-05 ΔBRET ratio per second; in [9], 3.77e-05 ΔBRET ratio per second; in experiment [10] it was 3.06e-05 ΔBRET ratio per second; in experiment [11] it was 7.31e-05 ΔBRET ratio per second; in experiment [12], 3.32e-05 ΔBRET ratio per second. Besides, the “steady state (ΔBRET ratio)” value in experiment [7] was 0.036 ΔBRET ratio; in [8], 0.036 ΔBRET ratio; in experiment [9], 0.012 ΔBRET ratio; in [10] it was 0.014 ΔBRET ratio; in experiment [11], 0.022 ΔBRET ratio; in experiment [12] it was 0.014 ΔBRET ratio. The translocation half time in experiment [7] amounted to 185 s; in [8] it was 569 s; in [9], 286 s; in experiment [10], 354 s; in experiment [11], 210 s; in experiment [12], 354 s.
